Patent CN107042090A

Legend:
[1] = molecular target: Myc-GST融合蛋白 (Myc标签与谷胱甘肽融合的蛋白); assay: ELISA, Myc-GST coated at 5 μg/mL, HRP anti-His secondary antibody; heat test at 90℃
[2] = molecular target: Myc-GST融合蛋白 (Myc标签与谷胱甘肽融合的蛋白); assay: ELISA, Myc-GST coated at 5 μg/mL, HRP anti-His secondary antibody; heat test at 70℃
[3] = molecular target: Myc-GST融合蛋白 (Myc标签与谷胱甘肽融合的蛋白); assay: ELISA, Myc-GST coated at 5 μg/mL, HRP anti-His secondary antibody; heat test at 80℃

B1: 抗c-Myc标签单域重链抗体 (anti-c-Myc tag single-domain heavy-chain antibody) (VHH, not shown: small tags and cut ends)
VHH: QLQLVESGGGEVQAGGSLKLSCAASGSNVQISAMGWYRQVPGKQREFVASETNGGRIDYADFVEGRFTISRDRAKNTVYLQMTSLRPEDTAVYYCNAAPGGWYADLREEYWGKGTLVTVSS
[1]
  OD450: 1.1 OD450
[2]
  OD450: 1.5 OD450
[3]
  OD450: 1.2 OD450
